Assay: yeast display, Sf9 membrane polyspecificity reagent, FACS + sequencing; frameworks hold sequencing errors
Outline: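 A synthetic nanobody library was expressed on Saccharomyces cerevisiae BJ5465 by galactose induction for 36–48 hours. The library was stained for 1 hour at 4 °C with 10% biotinylated, detergent-solubilized Sf9 membrane reagent and enriched with streptavidin microbeads before FACS. Low and high (top ~1%) gates were set on anti-HA fluorescence for expression and streptavidin fluorescence for reagent binding, and each polyreactivity label reflects the gate of origin.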

| Sequence | polyreactivity (PSR sort gate) |
| --- | --- |
| QVQLVESGVGLVQAGGSLRLSCAASGSIFASYAMGWYRQAPGKERELVAAISRSGTSTRYADSVKGRFTISRDNAKNTVYLQMNSLKPEDTAVYYCAARWYVFFRKYDYWGQGTQVTVSS | high polyreactivity |
| QVQLVESGVGLVQAGGSLRLSCAASGSIFGYYVMGWYRQAPGKERELVAAISGSDSSTYYADSVKGRFTISRDNAKNTVYLQMNRLKPEDTAVYYCNADQRYYPVEFDYWGQGTQVTVSS | low polyreactivity |
| QVQLVESGVGLVQAGGSLRLSCAASGSIFLRNDMAWYRQAPGKERELVAGISSVGSTYYADSVKGRFTISRDNAKNTVYLQMNSLKPEDTAVYYCAAERWGNPTDYQFWRPYDYWGQGTQVTVSS | low polyreactivity |
| QVQLVESGVGLVQAGGSLRLSCAASGSIFQGYAMGWYRQAPGKERELVAGITSSGGRTRYADSLKGRFTISRDNAKNTVYLQMNSLKPEDTAVYSCAADYVRHIGYNYWGQGNQVTVSS | high polyreactivity |
| QVQLVESGVGLVQAGGSLRLSCAASGSIFVPNTMRWYRQAPGKERELVAAITGGGSTDYADSVKGRFTISRDNAKNTVYLQMNSLKPEDTAVYYCNKDYWRDVAQDVLDGYDYWGQGTQVTVSS | low polyreactivity |
| QVQLVESGVGLVQAGGSLRLSCAASGSIFYENAMGWYRQEPGKEREFVATIDLIGDRTFYADSVKVRFTISRDNAKNTVYLQMNSLKPEDTAVYYCAAERVGVFFRYDYWGQGTQVTVSS | low polyreactivity |
| QVQLVESGVGLVQAGGSLRLSCAASGSIFYRNAMVWYRQAHGKERELVAAISGTGGSTYYADSLKGRFTISRDNAKNTVYLQMNSLKPEDTAVYYCASGVTYRHDYWGQGTQVTVSS | high polyreactivity |
| QVQLVESGVGLVQAGGSLRLSCAASGSTFEVHSMGWYRQAPGKERELVATITRSGGSTYYADSVKGRFTISRDNGKNTVYLQMNSLKPEDTAVYYCNALWELKWGQGTQVTVSS | low polyreactivity |
| QVQLVESGVGLVQAGGSLRLSCAASGSTFKFYSMGWYRQAPGTERELVASITSSSGPTYFADSVKGRFTNSLDNAKNTVYLQMNSLKQEDTAVYYCAKRPIRYYHLLRGNYWGHGTQVTVSS | low polyreactivity |
| QVQLVESGVGLVQAGGSLRLSCAPSGSTLGYYVMGWYRQAPGKERELVAAITGGGSTDYADSVNGRFTISRDNAKNTVYLQMNSLKPEDTAVYYCAAERTRTGQLFWWGPIYDYWGLGTQVTVSS | low polyreactivity |
| QVQLVESGVGLVQAGGSLRLSCASSGITFPSYTMGWYRQAPGKERELVATIRNGGSTYYADSVKGRFTISRDNAKNTVYLQMNSLKPEDTAVYYCAAVPLWDYKFFYYLLYDYWGQGTQVTVSS | low polyreactivity |
| QVQLVESGVGLVQAGGSLRLSSAASGSIFLSYDMGWYRQAPGKERELVAAITQSGGSTYYADSVKGRFTISRDNAKNTVYLQMNSLKPEDTAVYYCAADYGYFPQETYPTYGYYYWGQGTQVTVSS | low polyreactivity |
| QVQLVESGVGLVQAGGSLRLTCAASGSIFGRKAMGWYRKATGKERELVAAIRTRGGSTYYADSVKGRFTISRDNAKNTLYLQMNSLKPEDTAVFFCAAPGGGKVVDYWGQGTHVTVSS | low polyreactivity |
| QVQLVESGVGLVQAGGSLRVSCAASGLTFAYYDMGWYRQAPGKERELVAAITWNGGSTYYADSVKGRFTISRDNAKNTVYLQMNSLKPEDTAVYYCAASWGYGYSGRFDYWGQGTQVSVSS | high polyreactivity |
| QVQLVESGVGLVQAGGSLSLSCAASGFTFHDYAMGWYSQAPGKERELVAAIDWSGGRTYYADSVKGRFTISRDNAKNTVYLQMNSLKPEDTAVYYCAAVRYSRLYWYRLDYGGQGTQVTVSS | low polyreactivity |
| QVQLVESGVGLVQAGGSLSLSCAASGIIFYWYAMGWYRQAPGKEREMVATITSTGGSTNYADSVKGRFTISRDNAKNSVYVQMNSLKPEYTAVYYCSTSGPQYYSRNFDYWGQGTQVTVSS | low polyreactivity |
| QVQLVESGVGLVQAGGSLSLSCAASGSTFPKYAMGWYRQAPGKERELVAAISGSGGSTYYADSVKGRFTISRDNAKNTVYLQMNSLKREDTAVYYCAVAWNVRGVGARQRYIYGYWGQGTQVTVSS | high polyreactivity |
| QVQLVESGVGLVQAGGSLSLSCAASGTFVLYAMGWYRQAPGKERELVAAISKTGRTYYADSVKGRFTISRDNAKNTVYLQMNSLKPEDTAVYYCAAQRFSKFGYWGQGTQVTVSS | high polyreactivity |
| QVQLVESGVGLVQARGSLRLSCAASGITFRRYAMGWYRQPPGKERELVAAITSSGGSTYYADSVKGRFTIPRDNAKNTVYLQMNSLKPEDTAVYYCAAAFFSQYYLYDYWGQGTQVTVSS | high polyreactivity |
| QVQLVESGVGLVQARGSLRLSCASSGSILIYNAMGWYRQAPGKVRELVAGISRRGDSTYYADSVKGRFTISRDNAKKTVYLQMNSLKPEDTAVYYCAALGKYIVAWSGDYWGQGTQVTVSS | low polyreactivity |
| QVQLVESGVGLVQAVGSLRLSCAASGSTFYYYAMGWYRQAPGKERELVAAISWSGAYTFYSDSVKGRFTISRDNAKNTVYLQMNSLKPEDTAVYYCAARYYGQPQYQPLYYWGQGTQVTVSS | high polyreactivity |
| QVQLVESGVGLVQPGGSLRLIRAAYGRILRDYDMGWYSTAPRKERELVAAINWSDGSTYYADSVKGRFTISRDNAKYTVYLQMNCQKPVDTAVYYCAAEPYVFGLSSKRFWYNYWGQGTEVTVSS | low polyreactivity |

| Sequence | polyreactivity (PSR sort gate) |
| --- | --- |
| QVQLVESGVGLVQSGGSLRLSCAASGFSIEPYAMGLYRQAPGKERELVAAISWSGGSTYYADSVKGRFTISRDNAKNTVYLQMNSLKPEDTAVYYCAAEWYNSAYYEYDYWGQGTQVTVST | high polyreactivity |
| QVQLVESGVRLVQAGGSHRLSCAASARTFYPNAMGWYRQAPGKEREFVARISDSGGSSYYADSVKGRFTISRDNAKNTVYLQMNSLKPEDTAVYYCAADYVDPRVNEYDYWGQGTQVTVST | low polyreactivity |
| QVQLVESGVRLVQAGGSLRLSCAASGFTFRLYAMGWYIQAPGKERELVAATTSGGSTYYADSVKGRFTISRDNAKNTVYLQMNSLKPEDTAVYYCNKLYRTSVEYDYWGQGTQVTVSS | high polyreactivity |
| QVQLVESGVVLVQAGGSLRLSCAASGSIFAGYVMGWYRQAPGKERELVASISSGTGTYYADSVKGRFTISRDNAKNTVYLQMNSLKPEDTAVYYCAAECYRTVQFIRSRWSYTYDYWGQGTQVTVSS | low polyreactivity |
| QVQLVESLGGLLHAGGSLRLSCGASGSIFGSNALGWYRQAPGKERELVAAINYSGGSTTYADSVKGRFTISRDNAKNTVYLQMTSLKPEDTAVYYCNADVLYQFDEGVWSDYWGQGTQVTVSS | low polyreactivity |
| QVQLVESLGGLVQAGGSLRLSCAASGFTFGAYAMGLYRPAPGKERELVATMDWRGSSTYYADSVKGRFTISRDNAKNTVYLQINCLKPVDTAVYYCAARLARGSYAYEYWGHGTQVTVSS | low polyreactivity |
| QVQLVESRAVLVQAGGSLRLSCAASGSIFYVYAMGWYRQAPGKERELVAAISSSSDSTYADSVKGRFTISRDNAKNTVYLQMNSLKPEDTAVYYCATAWYYGIVRGGLPYDYWGHGTQVTVSS | low polyreactivity |
| QVQLVESRGAIVQAGASLRLSSAASGFTFWDYAMGCYRQAPGKERELVAAISSRGTRTYYADSVKGRFTISRDNAKNTVYLQMNSLKPEDTAVYYCATASPDPDYIHNYWGQGTQVTVSS | high polyreactivity |
| QVQLVESRGALVQAGASLRLSCAASALTFVKNVMGWYRQAPGKERELVAAISSGGSTYADSVKGRFTISRDNAKNTVYLQMNSLKPEDTAVYYCNADFRARNYHYYPRRFKYYYWGQGTQVTVSS | high polyreactivity |
| QVQLVESRGALVQAGGSLRLSCAATGSSFNRYAMRWYRQAPRKERELVAAISSGRTTNYADSVKGRFTISRDNAKNTVYLQMNSLKPEDTAVYYCNRKFRYSSHTNYYYWGQGTQVTVSS | high polyreactivity |
| QVQLVESRGCLVQAGGSHRLSCAASGSISDVNPMGWYRQARGNERELFAAMTSRRGGTNYADSVKGRFTISRDYAKNTVYLQMNSLNPEDTAVYYCAVYVSTKASKQGYGPGDYWGQGTQVTVSS | low polyreactivity |
| QVQLVESRGCLVQAGVSLRLSCSASGSIFKIYAMGWYRQAPGKERELVATITGIADSTYYADSVKGRFTISRDNAKNTVYLLMNSLKPDDNAVYYCAADNYVADYDYWGQGTQVTVSS | low polyreactivity |
| QVQLVESRGGIVQAGGSLRLSCAASGRIFSRYAMGWSRQAPGKEREMVAAISWSGGSTFYADSVKGRFTISRDNAKNTVYLQMNSLKPEDTAVYDCAAYPRFYGGKDGEYGYWGQGTQVTVSS | high polyreactivity |
| QVQLVESRGGIVQAGGSLRLSCAASGSIFTGNAMGWYRQAPGKERELVAAITSSAGSTYYADSVKGRFTISRDNAQYTVYLQMNSLKPEDTAVYYCAKDYYSKHFPNYDYWGQGTQVTVSS | low polyreactivity |
| QVQLVESRGGLDQAGGSLRLSCAASGSIFNAYVMGWYRQAPGKERELVAAISRSGGRTYYADSVKGRFTISRDNAKNTVYLQMNSLKPEDTAVYYCAASTIWHYDSWGQGTQVTVSS | high polyreactivity |
| QVQLVESRGGLLQAGGSLRLSCAASGFTFRQYTMGWYRQAPGKERELVAGITSSGTRTYYADSVKGRFTISRDNAKNTVYLQMNSLKPEDTAVYYCATYSRWDYGYWGQGTQVTVSS | high polyreactivity |
| QVQLVESRGGLVQAAGSLRLSCAASGGTFDINAMGWYRQAHGKEREFVAAISSYDDGTYYADSVKGRFTISRDNAKNTVYLQMNSLKPEDTAVYYCAAEGYYDYLYRHYYWGQGTLVTVSS | low polyreactivity |
| QVQLVESRGGLVQAGGSLRLICAASANNYRYAMGWYRQAPAKEREFVAAISRGGSTFYADSVKGRFTISRDNAKNTVYEQMNRLKPEDSAVFYCDKERYNVYYYSGQGTQVTVSS | high polyreactivity |
| QVQLVESRGGLVQAGGSLRLISAASGSSFLSYAMGWYRQAPGKERELVAAITGSGGNTYYADSVKGRFTISRDNAKNTVYLQMNSLIPEDTAVYYCAARAPTWAGTYGYWGQGTQVTVSS | high polyreactivity |
| QVQLVESRGGLVQAGGSLRLSCAACGLIFTRNAMGWYSAAPGKERELVAAISRSGGTTYYADSVKGRFTISRDNAKNTVYLQMNSLKPEDTAVYYCAAGSWWVIGGSVSYWYNYWGQGTQVTVSS | high polyreactivity |
| QVQLVESRGGLVQAGGSLRLSCAASGFIFLGNAMGWYRQAPGKERELVASISRGGSTNYADSVKGRFTISRDNAKNTVYLQMNSLKPEDTAVYYCAADLSDKFGYWGQGTQVTVSS | low polyreactivity |

Reference: the nanobody polyreactivity screen of Harvey et al. (2022)
